Patent US20230127087

Molecular target: Glypican-3 (GPC3) (UniProt P51654)
Assay: filter
Settings: n = BzdU (benzyl-modified dU); unit not given; Bmax 0.79; SB18T0.05, 37 C; 32P-labelled aptamer, protein titrated from 100 nM

Chain of Glypican-3 (GPC3) (P51654 25-554): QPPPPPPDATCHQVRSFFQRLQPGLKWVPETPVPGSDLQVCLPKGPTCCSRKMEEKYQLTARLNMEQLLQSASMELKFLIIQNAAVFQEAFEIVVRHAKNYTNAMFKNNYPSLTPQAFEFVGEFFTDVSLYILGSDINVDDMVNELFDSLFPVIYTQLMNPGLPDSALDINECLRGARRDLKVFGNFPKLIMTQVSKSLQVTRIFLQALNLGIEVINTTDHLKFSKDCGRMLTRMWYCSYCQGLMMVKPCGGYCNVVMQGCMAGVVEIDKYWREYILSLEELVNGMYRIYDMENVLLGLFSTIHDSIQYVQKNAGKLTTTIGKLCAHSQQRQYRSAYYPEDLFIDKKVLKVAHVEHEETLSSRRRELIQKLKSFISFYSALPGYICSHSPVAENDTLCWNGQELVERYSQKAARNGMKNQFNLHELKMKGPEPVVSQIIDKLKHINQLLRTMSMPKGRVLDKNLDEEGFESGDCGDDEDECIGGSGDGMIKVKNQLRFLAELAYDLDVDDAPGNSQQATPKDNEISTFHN

## GGGAAGTGAATGCGTTGAATTATGTCCCTTCAGTCATCAC [2428-12-10 (12-10)]
  Kd: 1.5
